Tests used:
[1] = biological target: membrane-bound recombinant E1E2 (hepatitis C virus (strain not stated))
[2] = biological target: soluble recombinant E1E2 (hepatitis C virus (strain not stated))
[3] = biological target: T1, E2 alone (as compared with E1E2) (Hepatitis C virus genotype 1b, strain …)
T1 chain: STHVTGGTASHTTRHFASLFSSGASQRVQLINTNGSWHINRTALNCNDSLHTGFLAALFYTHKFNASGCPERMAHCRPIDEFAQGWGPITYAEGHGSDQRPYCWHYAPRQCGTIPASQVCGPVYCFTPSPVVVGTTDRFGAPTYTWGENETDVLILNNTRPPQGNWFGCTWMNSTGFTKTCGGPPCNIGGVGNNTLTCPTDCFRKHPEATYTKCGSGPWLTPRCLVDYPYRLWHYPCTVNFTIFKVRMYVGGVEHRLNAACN

B1: CBH4B (antibody, format not stated, as tested on E1E2 and E2 alone) (antibody, V domains shown)
VH: QIQLVQSGAEVKKPGSSVKVSCRASGGSFGTYGITWVRQAPGQGLEWVGGIVPLFDRPNYAQKFQDRVAITADESTSTAYMELSSLRFDDTAVYYCAREADIVVGGSSYFDSWGQGTLVTVTK
VL: ESVLTQSPGTLSLSPGERATLSCRASQSVSSTYVAWYQQKPGQAPRLLIYDASIRATGVPDRFSGGGSGTDFTLTISRLEPEDFAVYYCQQYGGSPFFGGGTKVEIK
Kd [1]: 3.1 nM
Kd [2]: 19 nM
Kd [3]: 0.08 nM
